B1: IL-2: mouse cytokine, 15 kD; target analyte of microdialysis sampling (protein, UniProt P04351 21-169, looked up)
Interleukin-2: APTSSSTSSSTAEAQQQQQQQQQQQQHLEQLLMDLQELLSRMENYRNLKLPRMLTFKFYLPKQATELKDLQCLEDELGPLRHVLDLTQSKSFQLEDAENFISNIRVTVVKLKGSDNTFECQFDDESATVVDFLRRWIAFCQSIISTSPQ

Assay: Microdialysis sampling of cytokines across CMA-20 probe (10 mm polyethersulfone membrane, 100 kD MWCO) with multiplexed cytokine bead array / flow cytometry readout
Assay type: physicochemical
Conditions: control perfusion fluid without microspheres; flow rate 1.5 μl/min; quiescent phosphate buffer pH 7.4 containing 5000 pg/ml cytokines
Procedure: Microdialysis probes (CMA-20) with a 10 mm polyethersulfone membrane (100 kDa MWCO) were purchased from CMA Microdialysis (Acton Mass.) and were used as received. For control experiments, the perfusion fluid contained the assay diluent from the BD Pharmingen kit. To enhance the transport of cytokines during the microdialysis sampling process, 5 μl of bead solution for each target analyte was combined and diluted to 250 μl with the assay diluent. […] Greater than 200 μl of fluid was allowed to pass through the microdialysis probe that was immersed into a standard containing 5000 pg/ml of IL-2, IL-4, IL-5, IFN-gamma, and TNF-alpha. After sample collection, the dialysates containing microspheres were reconstituted in 25 μl of assay diluent. Microspheres with coupled target analyte were then incubated with 25 μl phycoerythrin detection reagent for 2 hours and washed briefly prior to flow cytometric analysis.
The dialysate samples were analyzed using a BD FACScan flow cytometer with the appropriate BD Biosciences software for this analysis.
Different cytokines (e.g., mouse IL-2 (15 kD), IL-4 (20-25 kD), and TNF-α ([…])) have been successfully measured across microdialysis probes (CMA-20, 10 mm, polyethersulfone membrane, MWCO 100 kD) in a quiescent solution using a multiplexed cytokine bead array assay (BD Pharmingen). TNF-α has the largest molecular weight of the cytokines targeted for analysis in this example (Thorpe et al., “Detection and Measurement of Cytokines,” Blood Rev. 6:133-48 (1992), which is hereby incorporated by reference in its entirety). Only 25 μl of sample was needed to simultaneously measure all three of these cytokines in solution using the multiplexed bead array (Carson et al., “Simultaneous Quantitation of 15 Cytokines Using a Multiplexed Flow Cytometric Assay,” J. Immunol. Methods 227:41-52 (1999), which is hereby incorporated by reference in its entirety). […]

| Molecule | microdialysis Ed (extraction efficiency) [%] |
| --- | --- |
| IL-4: mouse cytokine, 20-25 kD; target analyte of microdialysis sampling | 0.9±0.3 |
| TNF-α | 1.5±0.5 |
| B1 | 1.1±0.3 |

— patent publication US20040248181A1, “Method and kit for enhancing extraction and quantification of target molecules using microdialysis” (priority 2003, published 2004)
